target: PD-L1 (human) (UniProt Q9NZQ7); assay: cell-based or functional assay
Sequence (Q9NZQ7 19-290): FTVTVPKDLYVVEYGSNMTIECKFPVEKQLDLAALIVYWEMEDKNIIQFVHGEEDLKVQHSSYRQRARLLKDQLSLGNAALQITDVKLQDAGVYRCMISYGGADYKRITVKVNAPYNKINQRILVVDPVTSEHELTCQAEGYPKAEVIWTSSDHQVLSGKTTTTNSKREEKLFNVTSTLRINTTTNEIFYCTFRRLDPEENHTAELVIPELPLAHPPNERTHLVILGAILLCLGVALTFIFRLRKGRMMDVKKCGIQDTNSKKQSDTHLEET

Sequence of WT CD80 IgV-Fc (inert) (Fc fusion) (chain): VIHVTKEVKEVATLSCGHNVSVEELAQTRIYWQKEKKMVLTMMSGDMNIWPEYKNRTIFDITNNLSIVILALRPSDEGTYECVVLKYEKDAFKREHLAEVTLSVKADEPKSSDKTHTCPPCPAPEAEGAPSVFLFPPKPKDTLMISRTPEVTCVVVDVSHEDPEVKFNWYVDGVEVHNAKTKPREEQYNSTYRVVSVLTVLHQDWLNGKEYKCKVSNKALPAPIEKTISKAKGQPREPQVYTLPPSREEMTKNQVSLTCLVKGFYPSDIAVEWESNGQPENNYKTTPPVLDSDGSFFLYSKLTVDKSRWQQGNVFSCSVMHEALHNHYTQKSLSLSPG
Sequence of WT CD80 ECD-Fc (inert) (Fc fusion) (chain): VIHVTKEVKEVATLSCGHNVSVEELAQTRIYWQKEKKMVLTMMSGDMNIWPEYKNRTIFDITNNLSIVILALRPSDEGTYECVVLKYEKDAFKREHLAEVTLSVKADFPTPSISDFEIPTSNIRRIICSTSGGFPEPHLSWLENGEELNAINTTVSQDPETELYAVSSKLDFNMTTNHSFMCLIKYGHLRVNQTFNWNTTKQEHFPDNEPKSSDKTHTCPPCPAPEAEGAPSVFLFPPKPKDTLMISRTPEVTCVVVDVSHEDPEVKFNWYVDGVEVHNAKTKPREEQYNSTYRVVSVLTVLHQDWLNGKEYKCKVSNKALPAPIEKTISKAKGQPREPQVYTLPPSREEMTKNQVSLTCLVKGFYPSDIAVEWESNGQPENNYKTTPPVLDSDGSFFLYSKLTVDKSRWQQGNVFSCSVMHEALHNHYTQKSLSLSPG

| RLU, Jurkat/IL2 + CHO/OKT3/PD-L1 Reporter Assay, CD80 Conc 5.0 nM | Jurkat/IL2 + CHO/OKT3/PD-L1 reporter assay, RLU at CD80 Conc 5.0 nM | IL-2 release, primary T cells; K562/OKT3/PD-L1; 10 nM | RLU, Jurkat/IL2 reporter; K562/OKT3/PD-L1 aAPC, Combination of FcR and/or PD-L1 Dependent Cross-Linking; 0.6 nM | RLU, Jurkat/IL2 reporter; K562/OKT3/PD-L1 aAPC, Combination of FcR and/or PD-L1 Dependent Cross-Linking; 1.9 nM | RLU, Jurkat/IL2 reporter; K562/OKT3/PD-L1 aAPC, Combination of FcR and/or PD-L1 Dependent Cross-Linking; 5.6 nM | RLU, Jurkat/IL2 reporter; K562/OKT3/PD-L1 aAPC, Combination of FcR and/or PD-L1 Dependent Cross-Linking; 16.7 nM | RLU, Jurkat/IL2 reporter; K562/OKT3/PD-L1 aAPC, Combination of FcR and/or PD-L1 Dependent Cross-Linking; 50 nM | IL-2 release, primary T cells; K562/OKT3/PD-L1; 1 nM | IL-2 release, primary T cells; K562/OKT3/PD-L1; 100 nM | Substance |
| --- | --- | --- | --- | --- | --- | --- | --- | --- | --- | --- |
| 957 RLU | – | – | – | – | – | – | – | – | – | CD80 IgV-Fc (inert) H18V/A26K/E35D/M47L/V68M/A71G (from UniProt P33681 35-141) (Fc fusion) |
| 985 RLU | – | – | – | – | – | – | – | – | – | CD80 IgV-Fc (inert) H18V/A26N/E35D/M47V/V68M/A71G (from UniProt P33681 35-141) (Fc fusion) |
| 738 RLU | – | – | – | – | – | – | – | – | – | CD80 IgV-Fc (inert) H18V/A26R/E35D/M47L/V68M/A71G/D90G (from UniProt P33681 35-141) (Fc fusion) |
| 761 RLU | – | – | – | – | – | – | – | – | – | CD80 IgV-Fc (inert) H18Y/A26P/E35D/M47I/V68M/A71G (from UniProt P33681 35-141) (Fc fusion) |
| 994 RLU | – | – | – | – | – | – | – | – | – | CD80 IgV-Fc (inert) H18Y/A26Q/E35D/M47T/V68M/A71G/D90G (from UniProt P33681 35-141) (Fc fusion) |
| 963 RLU | – | – | – | – | – | – | – | – | – | CD80 IgV-Fc (inert) H18Y/E35D/M47V/V68M/A71G (from UniProt P33681 35-141) (Fc fusion) |
| – | 1600 RLU | – | – | – | – | – | – | – | – | CD80 IgV-Fc D46V/M47I/A71G (from UniProt P33681 35-141) (Fc fusion) |
| – | 1960 RLU | – | – | – | – | – | – | – | – | CD80 IgV-Fc E35D/D46E (from UniProt P33681 35-141) (Fc fusion) |
| – | 395 RLU | – | – | – | – | – | – | – | – | CD80 IgV-Fc E35D/D46E/A91G (from UniProt P33681 35-141) (Fc fusion) |
| – | 1410 RLU | – | – | – | – | – | – | – | – | CD80 IgV-Fc E35D/D46E/L85M (from UniProt P33681 35-141) (Fc fusion) |
| – | 1920 RLU | – | – | – | – | – | – | – | – | CD80 IgV-Fc E35D/D46E/M47I (from UniProt P33681 35-141) (Fc fusion) |
| – | 914 RLU | – | – | – | – | – | – | – | – | CD80 IgV-Fc E35D/L97R (from UniProt P33681 35-141) (Fc fusion) |
| – | 1480 RLU | – | – | – | – | – | – | – | – | CD80 IgV-Fc E35D/M43I/D46E/A71G/L85M (from UniProt P33681 35-141) (Fc fusion) |
| – | 1430 RLU | – | – | – | – | – | – | – | – | CD80 IgV-Fc E35D/M43I/M47L/L85M (from UniProt P33681 35-141) (Fc fusion) |
| – | 1950 RLU | – | – | – | – | – | – | – | – | CD80 IgV-Fc E35D/M47L/A71G (from UniProt P33681 35-141) (Fc fusion) |
| – | 1510 RLU | – | – | – | – | – | – | – | – | CD80 IgV-Fc E35D/M47L/A71G/L85M (from UniProt P33681 35-141) (Fc fusion) |
| – | 1350 RLU | – | – | – | – | – | – | – | – | CD80 IgV-Fc E35D/M47V (from UniProt P33681 35-141) (Fc fusion) |
| – | 1180 RLU | – | – | – | – | – | – | – | – | CD80 IgV-Fc E35D/M47V/I61V/L85M (from UniProt P33681 35-141) (Fc fusion) |

| RLU, Jurkat/IL2 + CHO/OKT3/PD-L1 Reporter Assay, CD80 Conc 5.0 nM | Jurkat/IL2 + CHO/OKT3/PD-L1 reporter assay, RLU at CD80 Conc 5.0 nM | IL-2 release, primary T cells; K562/OKT3/PD-L1; 10 nM | RLU, Jurkat/IL2 reporter; K562/OKT3/PD-L1 aAPC, Combination of FcR and/or PD-L1 Dependent Cross-Linking; 0.6 nM | RLU, Jurkat/IL2 reporter; K562/OKT3/PD-L1 aAPC, Combination of FcR and/or PD-L1 Dependent Cross-Linking; 1.9 nM | RLU, Jurkat/IL2 reporter; K562/OKT3/PD-L1 aAPC, Combination of FcR and/or PD-L1 Dependent Cross-Linking; 5.6 nM | RLU, Jurkat/IL2 reporter; K562/OKT3/PD-L1 aAPC, Combination of FcR and/or PD-L1 Dependent Cross-Linking; 16.7 nM | RLU, Jurkat/IL2 reporter; K562/OKT3/PD-L1 aAPC, Combination of FcR and/or PD-L1 Dependent Cross-Linking; 50 nM | IL-2 release, primary T cells; K562/OKT3/PD-L1; 1 nM | IL-2 release, primary T cells; K562/OKT3/PD-L1; 100 nM | Substance |
| --- | --- | --- | --- | --- | --- | --- | --- | --- | --- | --- |
| – | 466 RLU | – | – | – | – | – | – | – | – | CD80 IgV-Fc E35D/M47V/L85M/R94Q (from UniProt P33681 35-141) (Fc fusion) |
| – | 1400 RLU | – | – | – | – | – | – | – | – | CD80 IgV-Fc E35D/M47V/T62S/L85Q (from UniProt P33681 35-141) (Fc fusion) |
| – | 1730 RLU | – | – | – | – | – | – | – | – | CD80 IgV-Fc E35D/N48K/L72V (from UniProt P33681 35-141) (Fc fusion) |
| – | 1140 RLU | – | – | – | – | – | – | – | – | CD80 IgV-Fc E35D/T41S/N48T (from UniProt P33681 35-141) (Fc fusion) |
| – | 1900 RLU | – | – | – | – | – | – | – | – | CD80 IgV-Fc H18Y/E35D/M47L/A71G/A91S (from UniProt P33681 35-141) (Fc fusion) |
| – | 1640 RLU | – | – | – | – | – | – | – | – | CD80 IgV-Fc M43I/M47L/A71G (from UniProt P33681 35-141) (Fc fusion) |
| – | 1760 RLU | – | – | – | – | – | – | – | – | CD80 IgV-Fc M47I/A71G (from UniProt P33681 35-141) (Fc fusion) |
| – | 1830 RLU | – | – | – | – | – | – | – | – | CD80 IgV-Fc Q27H/E35D/M47I (from UniProt P33681 35-141) (Fc fusion) |
| – | 1170 RLU | – | – | – | – | – | – | – | – | CD80 IgV-Fc Q27L/E35D/M47V/I61V/L85M (from UniProt P33681 35-141) (Fc fusion) |
| – | 2580 RLU | – | – | – | – | – | – | – | – | CD80 IgV-Fc V22A/E35D/M47L/A71G (from UniProt P33681 35-141) (Fc fusion) |
| – | – | 143 | 689 RLU | 675 RLU | 666 RLU | 694 RLU | 679 RLU | – | – | Fc only Control (inert Fc) (from UniProt P0DOX5 218-448) |
| – | – | 3110 | – | – | – | – | – | 507 | 8390 | WT CD80 ECD-Fc (effector) (from UniProt P33681 35-242) (Fc fusion) |
| – | – | – | 692 RLU | 705 RLU | 847 RLU | 875 RLU | 1520 RLU | – | – | WT CD80 ECD-Fc (inert) (Fc fusion) |
| – | – | – | 662 RLU | 674 RLU | 697 RLU | 673 RLU | 663 RLU | – | – | WT CD80 IgV-Fc (effector) (Fc fusion) |
| – | – | – | – | – | – | – | – | – | 52 | WT CD80 IgV-Fc (inert) (Fc fusion) |
| – | – | – | 1230 RLU | 1590 RLU | 2000 RLU | 2500 RLU | 2640 RLU | – | – | variant CD80 IgV-Fc (effector) A26E/E35D/M47L/L85Q (Fc fusion) |
| – | – | – | – | 1540 RLU | 2520 RLU | 3640 RLU | 4030 RLU | – | – | variant CD80 IgV-Fc (effector) A71D/L72V/E95K (Fc fusion) |

target: CD28 (human) (UniProt P10747); assay: cell-based or functional assay

| IL-2 release, primary T cells; K562/OKT3 (No PD-L1); 1 nM | IL-2 release, primary T cells; K562/OKT3 (No PD-L1); 10 nM | IL-2 release, primary T cells; K562/OKT3 (No PD-L1); 100 nM | RLU, Jurkat/IL2 reporter; K562/OKT3 aAPC, FcR Dependent Cross-Linking (No PD-L1); 0.6 nM | RLU, Jurkat/IL2 reporter; K562/OKT3 aAPC, FcR Dependent Cross-Linking (No PD-L1); 1.9 nM | RLU, Jurkat/IL2 reporter; K562/OKT3 aAPC, FcR Dependent Cross-Linking (No PD-L1); 5.6 nM | RLU, Jurkat/IL2 reporter; K562/OKT3 aAPC, FcR Dependent Cross-Linking (No PD-L1); 16.7 nM | RLU, Jurkat/IL2 reporter; K562/OKT3 aAPC, FcR Dependent Cross-Linking (No PD-L1); 50 nM | IL-2-luciferase RLU, Jurkat + CHO/OKT3/PD-L1 aAPC, 0.6 nM | IL-2-luciferase RLU, Jurkat + CHO/OKT3/PD-L1 aAPC, 1.9 nM | Substance |
| --- | --- | --- | --- | --- | --- | --- | --- | --- | --- | --- |
| 7040 | 6340 | 5510 | 1400 RLU | 1390 RLU | 1390 RLU | 1370 RLU | 1370 RLU | – | – | Fc only Control (inert Fc) (from UniProt P0DOX5 218-448) |
| 11400 | 20200 | 23100 | – | – | – | – | – | – | – | WT CD80 ECD-Fc (effector) (from UniProt P33681 35-242) (Fc fusion) |
| 8050 | 7020 | 6480 | 1340 RLU | 1270 RLU | 1480 RLU | 1730 RLU | 2200 RLU | 518 RLU | 474 RLU | WT CD80 ECD-Fc (inert) (Fc fusion) |
| 7170 | 7120 | 6200 | 1410 RLU | 1350 RLU | 1310 RLU | 1210 RLU | 1250 RLU | – | – | WT CD80 IgV-Fc (effector) (Fc fusion) |
| – | – | – | – | – | – | – | – | 458 RLU | 486 RLU | WT CD80 IgV-Fc (inert) (Fc fusion) |
| 6850 | 8320 | – | 1350 RLU | 1380 RLU | 1420 RLU | 1370 RLU | 1330 RLU | – | – | variant CD80 IgV-Fc (effector) A26E/E35D/M47L/L85Q (Fc fusion) |
| – | 15100 | 21300 | 1820 RLU | 2590 RLU | 4130 RLU | 5550 RLU | 7110 RLU | – | – | variant CD80 IgV-Fc (effector) A71D/L72V/E95K (Fc fusion) |

same assay, conditions: not given

| IL-2-luciferase RLU, Jurkat + CHO/OKT3/PD-L1 aAPC, 5.6 nM | IL-2-luciferase RLU, Jurkat + CHO/OKT3/PD-L1 aAPC, 16.7 nM | IL-2-luciferase RLU, Jurkat + CHO/OKT3 aAPC (no PD-L1), 5.6 nM | IL-2-luciferase RLU, Jurkat + CHO/OKT3 aAPC (no PD-L1), 16.7 nM | IL-2-luciferase RLU, Jurkat + CHO/OKT3 aAPC (no PD-L1), 50 nM | IL-2-luciferase RLU, Jurkat + CHO/OKT3/PD-L1 aAPC, 50 nM | IL-2-luciferase RLU, Jurkat + K562/OKT3/PD-L1 aAPC, 50 nM | Substance |
| --- | --- | --- | --- | --- | --- | --- | --- |
| 505 RLU | 462 RLU | 436 RLU | 412 RLU | 420 RLU | – | – | WT CD80 ECD-Fc (inert) (Fc fusion) |
| 511 RLU | – | 450 RLU | 444 RLU | 479 RLU | 483 RLU | 566 RLU | WT CD80 IgV-Fc (inert) (Fc fusion) |
